From PMC5109294, “NANOG reprograms prostate cancer cells to castration resistance via dynamically repressing and engaging the AR/FOXA1 signaling axis”

Target: T1, FOXA1 (Homo sapiens, UniProt P55317 1-472)
T1 sequence: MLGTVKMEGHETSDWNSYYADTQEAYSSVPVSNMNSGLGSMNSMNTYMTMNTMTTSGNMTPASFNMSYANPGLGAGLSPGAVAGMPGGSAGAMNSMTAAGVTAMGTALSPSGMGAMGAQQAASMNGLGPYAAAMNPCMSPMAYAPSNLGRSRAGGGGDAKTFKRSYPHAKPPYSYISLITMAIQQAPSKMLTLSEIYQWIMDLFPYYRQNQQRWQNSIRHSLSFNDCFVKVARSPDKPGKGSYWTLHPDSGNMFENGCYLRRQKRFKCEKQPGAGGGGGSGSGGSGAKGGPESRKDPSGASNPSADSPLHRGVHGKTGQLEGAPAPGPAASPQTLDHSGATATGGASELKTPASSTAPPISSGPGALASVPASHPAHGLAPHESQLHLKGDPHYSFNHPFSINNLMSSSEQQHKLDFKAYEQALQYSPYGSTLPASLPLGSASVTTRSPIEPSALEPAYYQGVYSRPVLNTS
Assay: EMSA; 100 ng protein; competed by 300x unlabeled probe; weaker than NP8 at 1:1; LightShift Chemiluminescent EMSA kit; probe annealed in 20 mM Tris-HCl pH 7.5, 150 mM NaCl; 4-20% native gel, 0.5X TBE; binding buffer and temperature not stated
Details: protein: recombinant; tags: GST (pGEX-6p-1); label: biotin (both strands); blunt; some single-stranded primer remains after annealing

B1: FOXA1 motif probe, UBE2C gene promoter (dsDNA)
DNA 1: CTTAGTGTTTATTTCAAGCT
DNA 2: AGCTTGAAATAAACACTAAG
Does B1 bind?
Result: binds
